Assay: label from the status in PepcDB records
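Further: failed if final PepcDB status was selected cloned or expressed and not failed if soluble or beyond.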

MSQEQRMQKTFEVENHLGYRILRWVLLVALLSGILMSAVQVVLDAKRVSAELERDAAQTLAMVEDSATQAVFSIDDTLAQQVVDGLFALEPIHMAKITHPDGDELGDRLRPLQDSPFRPLTDPIFGQVREYRESLTRGSNPDLVYGYLEVHYDTAPYARTWLGRALVTFASGIALALILGIVLFVVFHLLLTRPLLRIVQSVKKVDPAHPDDRLVSIPEGHRADELGLWVNATNNLLVAIGDTQKKHREAEDRVTRLARYDTLTGLPSRDAFMEDLQGAIERAQEGHSSIALMVCGIDDFKSVNEQCGFRTGDTILQTVASRLTANLSSDRFNVARLGSDQFVIVEKHLRDGFQAAETAEKVLATIGSPINSGNHRISMTATLGISLFPSDADQADRLLQSAEQTMALAKQTGHNHFQFYVASIDKEIRERKQMEKDLAQALANHEFHLVYQPQINLETRRVIGAEALLRWEHPEHGMIPPDLFIPVAEANGSIVEIGQWVLDQACWQAARWASEGTHLRIAVNLSAVQLRQESIVDDILNTLKRHNIPAGRLELEVTETSFMTNLTDAVAKLHRLHRAGISIAVDDFGTGYSSLTYLKQMPVQHLKIDKQFIRDLLINEEDTRIANTIIDLGKSLNLTVVAEGVETAEQEYYLSQRGCALAQGYFFSKPLLPRDFANFVQTFHARIVENNA
protein production: failed

FAMESYFKGDSGEAELLAVAHKVQSDAWALQKAAGIAVIGLDGTLYDQVLDTITWLGAIPPRFKHLSGLQRYYAMARGGAALDMSKFFDTNYHYLVPELGPDVLGPATAAGAPLQPDFSGPLDKLARGQAVVGRERAVPILIGPVTFVSLSRGCELPLDQAVARLLPTYCALLQQLAAAGAPEVQLHEPVLATSEGAGMRAEFETAYAQMAQAAGSVPLHLVTYYDDLGAAYPWAVQLPVAAVTLDFLGPPGAAVPSQTLALLQQHGFPADKRLGAGVVDGRSVWKDDGTAVALLRALLDTGAVSSDRLVVTSSAPLQHLPYDLGLELEAPKTPEAEPHLPPALAARLGFAKQKVEEIVSVARLAASPAAAAAAAGHGAVVQLQRLQQGKGVEDHTAD
protein production: failed

MEKEKKEGWAHPEAAEKYAQTADIIIPERKEILSIISKAAIDLGPMDPKIIDLGCGLGDVTAEILKLKLQADVLMIDFSDEMIRRSSERFRDNKNITVVKRDLNQGILDITEDRGFDAVVSCFSIHHVEFENRIKLYSDIRKLLKEQGLFINGDLFREDSPAIDQWEFNNRIFSLMIQLKEKLGQEWTFEELKLNRLENSQKMGDKPGTIWETFHDMKAAGFRHVDCLWKSRNLAIMAATKP
protein production: failed

MSIRIKLFLAFLLTTFVVVMGMHFFTRWSLEKGFTEFIEKRQQERLDKIIDVLEEHYAEHRGWGELAGNKQHWISLLWHAGPHRHRPPKWIIEQAQHEPDRQWPPAVTPGTAERKWSPFELRVILLDADRSILFGRKELISQLSLHPVQYEHRTVGFLGLLPGNPVSQASDIYFMEQQADFFFWIALTMVVLSALIAWLMAYHLGRPLKQIAAVVQRLATGDYKARLPVISKDEMGQLALNFNDTAAALEQAEQSRRRWVADISHELRTPLAVLRGELEAILDGVHPLTPAAIESLSGDVLRLNRLTEDLYQLALSDQGALSYRKVLLDPVPLLREDLATFTTDFNHKQISVRWINRLFKPVLVNADPDRLSQLFRNLLTNSLNHTDARGQLEITVQRLADKLVIELADSSPGVSDQDIAHLFDRFYRVDHSRNRHLGGAGLGLAICSNIVRAHEGTLMASHSALGGLAIHIELPITP
protein production: failed

MIERILASLILCLMLGIPFGMMFSFTGDVVLNFTFFWPLFMSGLWITGGLYFWFHYERHWRWGDGVIPDEPTGRPLVSILIPCYNEGPNVRETIEAALAQRYTHIEVIAVNDGSNDDTGDELNRLAEQYDKLRVIHLAHNQGKALALQAACAAAKSDLLVCIDGDALLDPDAVAYLINPLINNPRVGAVTGNPRIRTRSTLIGRIQVGEFSSIIGLIKRTQRVHGKVFTVSGVIAAFRRSALAEVGYWSPDMITEDIDISWKLQLRHWTIFFEPRALCWILMPEKLSGLWKQRLRWAQGGAEVFLKNFRHLWSWRYRRMWPLFLEYSISILWAFTYAVSVLLYLLGFLIELPEEIRVETLFPPAFTGMMIGVVCLIQFAVSMLIERRYEKDIGKYLFWVIWYPMVYWTLSLFTSLVSFPKVMLRSRKKRARWESPDRGIERG
protein production: failed

KVSVNDIMVPRNEIVGIDINDDWKSIVRQLTHSPHGRIVLYRDSLDDAISMLRVREAYRLMTEKKEFTKEIMLRAADEIYFVPEGTPLSTQLVKFQRNKKKVGLVVDEYGDIQGLVTVEDILEEIVGDFT
protein production: not failed

MSLDYDLLIKNGQTVNGMPVEIAIKEKKIAAVAATISGSAKETIHLEPGTYVSAGWIDDHVHCFEKMALYYDYPDEIGVKKGVTTVIDAGTTGAENIHEFYDLAQQAKTNVFGLVNISKWGIVAQDELADLSKVQASLVKKAIQELPDFVVGIKARMSRTVIGDNGITPLELAKQIQQENQEIPLMVHIGSAPPHLDEILALMEKGDVLTHCFNGKENGILDQATDKIKDFAWQAYNKGVVFDIGHGTDSFNFHVAETALREGMKAASISTDIYIRNRENGPVYDLATTMEKLRVVGYDWPEIIEKVTKAPAENFHLTQKGTLEIGKDADLTIFTIQAEEKTLTDSNGLTRVAKEQIRPIKTIIGGQIYDNEGHHHHHH
protein production: not failed

MATNSSTEQSLTKKVWNLATTLAGQGIGFTDYITQLTYLLFLKMDAENVEMFGEESAIPTGYQWADLIAFDGLDLVKQYEETLKLLSELDNLIGTIYTKAQNKIDKPVYLKKVITMIDEEQWLIMDGDVKGAIYESILEKNGQDKKSGAGQYFTPRPLIQAMVDCINPQMGETVCDPACGTGGFLLTAYDYMKGQSASKEKRDFLRDKALHGVDNTPLVVTLASMNLYLHGIGTDRSPIVCEDSLEKEPSTLVDVILANPPFGTRPAGSVDINRPDFYVETKNNQLNFLQHMMLMLKTGGRAAVVLPDNVLFEAGAGETIRKRLLQDFNLHTILRLPTGIFYAQGVKANVLFFSKGQPTKEIWFYDYRTDIKHTLATNKLERHHLDDFVSCYNNRVEIYDAENNPQGRWRKYPVDEIIARDKTSLDITWIKPGGEVDDRSLAEL
protein production: not failed

MKTRLLPVAPSAGTLPGLPDAAELAVLRAWHAGLSAREAVERYLGERRAPGQSSRGILGRIRRQLAAFARRRQREDLALLFEIAATERARQGRVADQAVELLRTLPLPEPAISDDVALWLDARAVTVLRAAGIDTLADLTVRVPRRRRWWAAIPGLGQAGARRIEAFFAEHPRLTERAKALIAEQPRGVVVPWEQLRLPHEVDGSEGQFRAPRETSVLTADNDYEAVQAWLSLHESPATQRAYRKEAERLILWAIIERGRPLSSLTTEDAIAYRGFLRRPSPHERWVGPARPRASADWRPFTDGLSARSIAYSLSVLGAMFRWLIQQRYVLANPFAGIKVRGGGRTAALDASHAFSEGEWALVRTLADGLEWSYGWEAAAAQRLRFVLDFAYATGLRASELITARLGGIETDRQSDHWLSLIGKGGRAGKVALPPLARTALDRYLVERGLPVTQARWNPQTPLIGALGLDPGGGITGSRLWSVMRRFFRVAADLIERDHTALAEKLRKASPHWMRHTHASHALARGAELTTVRDNLRHASISTTSIYLHGDDVKRARQIEAAFAAK
protein production: failed

MAAPLAPWRVSAFNTAKQSENKMHDDTVARRFGFTGGLVPGVEVMAYMMHLPVARWGRDFLERGLIEARFVKPVYDGETATVTGEEQGEAITLAVESRGELCATGSASLPVRAPAVDLGAYPETAAATNRPPVGAQSFPEGHWFGTAPVNWGGAKLRDYLDEIRETDPIYRSDDLIHPGTLQRIMNRVLVDNVVLGPWIHVGSKMQLLAAARGDDVLTARAKVVANYDKKGHRFAEFDALIVANGDRPVAHCHHVAIFAPRQQAAA
protein production: failed

MGCYHPLSGTDGTLMRHTLPIAPQFYVTAPQPCPYLAGRMERKLFTALQGEGAERLNNALSQQGFRRSQNVLYRPSCADCAACLSARIDVSAFRASRSQKRAMRRNAHLTRRATSPWATDEQYELFRRYLDSRHADGGMADMDVFEFAAMIEETPIRSRVIEYAHRDTRALIGVSLTDVLDDGLSMVYSFYDPDLHRDSLGTHMILDHIAIAREAGLPYVYLGYWVPGSPKMGYKSRFSGLEIYLGGRWQAMTDPEAHDAIRHPLSTDPIAEQVANIQLPDRWPTGDLEHHHHHH
protein production: failed

MAKLHITTWGCQMNEYDSSKMADLLNSTHGLELTDKPEEADILLLNTCSIREKAQEKVFSQLGRWKNWKKDKPDLIIGVGGCVASQEGEHIRERAPFVDIVFGPQTLHRLPEMINQIRSGDRAVVDISFPEIEKFDRLPEPKAEGPTAFVSIMEGCNKYCSFCVVPYTRGEEVSRPVDDVLFEIAQLAEQGVREVNLLGQNVNAYRGETFDGGICTFAELLRLVAAIDGIDRLRYTTSHPIEFTDDIIEVYRDTPELVSFLHLPIQSGADRVLTMMKRNHTALEYKAIIRKLRAVRPNIQISSDFIVGFPGETAEDFEQTMKIIEQVNFDMSFSFIYSARPGTPASDLPDDVSENEKKDRLAHLQQRINHQAMQFSRLMLGTEQRILVEGPSKKDIMELTGRTETNRVVNFIGTPNMIGKFVDIKITDVYSNSLRGEVIRTEDQMGLRIVESASSVIARTRKEDDLGVGKYAVNLLEHHHHHH
protein production: failed

MHKIEQLLQTLAPKGVEFRKLGDIILSLKTGLNPRKFFKLNTPNANNYYVTVRELEEYTIKFTHQTDRIDDNALSLCLKRSNLEKDDIFYSLELEQ
protein production: failed

MPHLRTILPQLRNNWFFIALLTSCGLWCFFAPSLLGALLFSITVIRIVCTKSFPVILGGFLCSFLIVGGILIFQWLKPVSLLPKEVRLSGQLTILPDEIQVDGDQVKFPANWIVKGKRQKVMAFYQLKSVKEKQQWQQLTTTIQATAVGILDSPQGQTNKNGFNYQLFLKNQGIEAILFIEEIGQPRSFFSWRFKEIISGWRKWAMVHIQKNFAETSAMYMNALLLGFRNEEFAEISDKFSALGILHLFSLSGMHVSFFLRLFRLLMLRIARRTQESYFLWQCGFSLIYAGLTGFSVSVMRALLQTNLNTFNRRFNWQVPALDCWSLTLLVHLIVQPTLFFSVGGQFSYLLSFVLLFLEQTLVGYSSPFIKNCLGSFLLAVASLPILVQSFYEWPLLGSFLTFLLLPIFERFLLPLLTLSFFLVIIMPARYLAALLEPLFLTMNGLFEWVLVHLNPKLTIGYLNSWIQISLLLLIGFSMIYLADKSKKIFFSIGLLIVLINSKYLSPIGIVAMIDVGQGDSLFIQAPFHRKNTLIDTGGRLSFGKEAWRQRKNSRSGAEYSVIPFLKSQGVKRLDEVIITHAHEDHFGDLLAIAQKVPISVLYFPKGAAEANFSFRQVLKQLQKSGTDCRPILAPKRINGPVSFQILSPNKSSIGGNNDSIVFSTQLGGRHFLFTGDLEAEGEEQVLARYPQLKIDILKVGHHGSKTSSTKRFIKQLNPREALISAGLNNRFKHPHQETLATLEEQKINYYRTDLQGMIYYQWLPWQGLSKAKFVKEQD
protein production: failed

MVEHIFKRDGHAEKFQPYKIEDAIKKAFESVNVRYDDRIYTNVILAIESENLNSVECIQDRIELEFFKAGYFAVMKSFMNYRFLHKMQREHIYGLSEDTTYVNSTQSVEEYINKEDWRINANANTGYSNAGLVNNLAGKLIANYWLDKVYSKEEGYAHRNGDVHIHDLDCLTGYCAGWSLRSLLNEGFNGVRGRVESRAPKHLREALGQMANFLGILQSEWAGAQAFSSFDTYLAPYVFRDQLEFKEIKKAIKSFVYNLNVPARWGQSPFTNVTIDWTVPADLKDQIPTRNDRHLFEDIQEDALLVQEAQKRGASSLLSMTYKYFQAEMNLINRAFYEVMTEGDKTGQPFTFPIPTVNITEDFDWHGENTDLLFENTAKIGSSYFQNFIGSQYIRNEKGELVENPEAYKPNAVRSMCCRLQLDLRELLKRGGGLFGSAEMTGSIGVVTLNMARLGYRFRGDREGLMAELTKLMDLSKSTLEKKRQAVTELFHRGLYPYTKRYLPGFNNHFSTIGVNGINEMIRNFTNDQDNISSPSGMAFATEILEFMRERIRSYQEETGNLYNLEATPAEGTTYRFAKEDKKRYPQIIQAGMEENVYYTNSSQLPANFTDDPFEALTLQDELQCKYTGGTVLHLYMREKISSAEACRKLVKTVITSYKLPYITITPVFSVCPKHGYLRGEHEYCPLCDEEALLEIEQSQCC
protein production: failed
